The values that follow come from PMC12583656, “Conserved interfaces mediate multiple protein–protein interactions in a prokaryotic metabolon” (Molecular Systems Biology, 2025).

Changes are numbered by the printed parent chain. Names and notes keep the numbering of the source.

One may read the Kd as the equilibrium constant for the complex coming apart. Low values mean tighter binding, high ones weaker binding.

Assay [1] has as its target adenylate kinase (Adk), split-YFP fusion (E. coli) (UniProt P69441). Nature of the assay: split reporter (BiFC, NanoBiT); split monomeric EYFP (155/156) in living E. coli BW27783; NYFP fusion IPTG-induced, CYFP fusion arabinose-induced (0.2% arabinose, 1 mM IPTG), 30 °C 4-5 h; mean fluorescence intensity (MFI) of 30,000 cells by flow cytometry; both configurations measured, the higher value used; inducers also titrated for three pairs.

The target of assay [2] is T1, FolK, purified protein (E. coli, UniProt P26281 1-159).
T1 construct: FolK of E. coli (encoded by the gene folK); Expression and purification are not described
T1 sequence: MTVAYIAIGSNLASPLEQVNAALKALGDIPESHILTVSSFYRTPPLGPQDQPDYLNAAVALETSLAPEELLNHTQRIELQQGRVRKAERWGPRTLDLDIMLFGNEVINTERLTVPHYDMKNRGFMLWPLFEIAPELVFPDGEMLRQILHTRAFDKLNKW
Nature of the assay: Raman spectroscopy; titration: DHFR 7.5-50 µM, FolK fixed at 15 µM; area of the interaction-specific peak at ~1663 cm^-1 against DHFR concentration, hyperbolic fit. To be noted: both partners purified.

adenylate kinase (Adk), split-YFP fusion (E. coli), sequence (P69441 whole entry, the tested form may be a part): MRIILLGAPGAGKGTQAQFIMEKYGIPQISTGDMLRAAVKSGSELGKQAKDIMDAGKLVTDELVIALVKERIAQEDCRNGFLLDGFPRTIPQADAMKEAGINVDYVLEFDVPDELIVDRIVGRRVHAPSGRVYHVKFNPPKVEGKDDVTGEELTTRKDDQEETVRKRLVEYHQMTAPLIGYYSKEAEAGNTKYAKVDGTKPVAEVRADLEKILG

In turn, “dihydrofolate reductase (DHFR, FolA), split-YFP fusion (from UniProt P0ABQ4 1-159) (enzyme)” had an MFI (mean YFP fluorescence intensity) in assay [1] of 641.

B1: DHFR, wild type, purified protein (enzyme, E. coli)
chain: MISLIAALAVDRVIGMENAMPWNLPADLAWFKRNTLNKPVIMGRHTWESIGRPLPGRKNIILSSQPGTDDRVTWVKSVDEAIAACGDVPEIMVIGGGRVYEQFLPKAQKLYLTHIDAEVEGDTHFPDYEPDDWESVFSEFHDADAQNSHSYCFEILERR
notes: dihydrofolate reductase (DHFR, FolA) of E. coli; Expression and purification are not described; also called WT DHFR; WT-DHFR
The molecule B1 gave an equilibrium dissociation constant (Kd) in assay [2] of 22 µM.

B2: D132H DHFR, purified protein (enzyme, E. coli)
chain: B1 chain with D132H
notes: dihydrofolate reductase (DHFR) of E. coli with one substitution; as m28; Expression and purification are not described; also called D132H mutant of DHFR
Take B2: binding in assay [2] was put at a Kd of 8.1 µM.

B3: N23V DHFR, purified protein (enzyme, E. coli)
chain: B1 chain with N23V
notes: dihydrofolate reductase (DHFR) of E. coli with one substitution; as m28; Expression and purification are not described; also called N23V mutant of DHFR
B3: the dissociation constant (Kd) in assay [2] was found to be 5.1 µM.

B4: D144N DHFR, purified protein (enzyme, E. coli)
chain: B1 chain with D144N
notes: dihydrofolate reductase (DHFR) of E. coli with one substitution; as m28; Expression and purification are not described; also called D144N mutant of DHFR
B4: binding in assay [2] was put at a Kd of 10 µM.
